# In patent US20230331860A1 (Bristol-Myers Squibb, published 2023):
# Residue numbers refer to the chain shown, from its start. Names and notes keep the numbering of the source.
# T1: hCD32a-H131 (human, UniProt P12318 36-218, limits assumed)
# T1 construct: Position 131 is the customary allotype numbering; also called hCD32a/FcγRIIa, H131 variant
# T1 sequence (looked up): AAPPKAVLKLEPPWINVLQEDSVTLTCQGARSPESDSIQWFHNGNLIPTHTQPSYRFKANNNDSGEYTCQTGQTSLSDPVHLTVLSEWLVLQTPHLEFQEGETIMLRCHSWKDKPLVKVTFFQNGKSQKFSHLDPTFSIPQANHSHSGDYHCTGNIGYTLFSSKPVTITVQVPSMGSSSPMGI
# T2: hCD32b (human, UniProt P31994 43-217, limits assumed)
# T2 construct: also called hCD32b/FcγRIIb
# T2 sequence (looked up): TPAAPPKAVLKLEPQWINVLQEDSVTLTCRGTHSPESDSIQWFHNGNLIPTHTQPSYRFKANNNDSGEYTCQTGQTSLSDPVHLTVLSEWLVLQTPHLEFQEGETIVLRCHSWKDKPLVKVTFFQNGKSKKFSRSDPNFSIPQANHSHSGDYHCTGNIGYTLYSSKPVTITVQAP
# T3: cyCD32a (cynomolgus monkey, UniProt A0A140HDN0 30-216)
# T3 construct: also called cynomolgus CD32a
# T3 sequence: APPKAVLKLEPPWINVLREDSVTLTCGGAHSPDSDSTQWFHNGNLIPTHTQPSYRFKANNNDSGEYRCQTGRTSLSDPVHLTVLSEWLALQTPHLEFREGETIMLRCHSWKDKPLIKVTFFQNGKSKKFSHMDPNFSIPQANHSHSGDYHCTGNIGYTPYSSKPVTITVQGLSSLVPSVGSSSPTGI
# T4: cyCD32b (cynomolgus monkey, UniProt A0A140HDP4 43-217)
# T4 construct: also called cynomolgus CD32b
# T4 sequence: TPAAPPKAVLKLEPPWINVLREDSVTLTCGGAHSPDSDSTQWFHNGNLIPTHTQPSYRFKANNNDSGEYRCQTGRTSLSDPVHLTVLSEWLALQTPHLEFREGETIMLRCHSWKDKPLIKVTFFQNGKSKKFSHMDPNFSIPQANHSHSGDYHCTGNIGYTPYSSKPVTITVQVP
# T5: hCD32a-R131 (human, UniProt P12318 36-218, limits assumed)
# T5 construct: Position 131 is the customary allotype numbering; also called hCD32a/FcγRIIa, R131 variant
# T5 sequence (looked up): T1 sequence (looked up) with H132R
# T6: murine CD40 (murine, UniProt P27512 24-193, limits assumed)
# T6 construct: also called murine CD40 receptors
# T6 sequence (looked up): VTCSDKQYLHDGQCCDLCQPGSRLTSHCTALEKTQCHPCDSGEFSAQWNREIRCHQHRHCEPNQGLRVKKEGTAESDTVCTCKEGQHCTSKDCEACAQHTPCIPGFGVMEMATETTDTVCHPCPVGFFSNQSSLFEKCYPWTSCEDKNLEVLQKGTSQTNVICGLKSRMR
# B1: BMS-986325 (antibody, human IgG1, kappa)
# heavy: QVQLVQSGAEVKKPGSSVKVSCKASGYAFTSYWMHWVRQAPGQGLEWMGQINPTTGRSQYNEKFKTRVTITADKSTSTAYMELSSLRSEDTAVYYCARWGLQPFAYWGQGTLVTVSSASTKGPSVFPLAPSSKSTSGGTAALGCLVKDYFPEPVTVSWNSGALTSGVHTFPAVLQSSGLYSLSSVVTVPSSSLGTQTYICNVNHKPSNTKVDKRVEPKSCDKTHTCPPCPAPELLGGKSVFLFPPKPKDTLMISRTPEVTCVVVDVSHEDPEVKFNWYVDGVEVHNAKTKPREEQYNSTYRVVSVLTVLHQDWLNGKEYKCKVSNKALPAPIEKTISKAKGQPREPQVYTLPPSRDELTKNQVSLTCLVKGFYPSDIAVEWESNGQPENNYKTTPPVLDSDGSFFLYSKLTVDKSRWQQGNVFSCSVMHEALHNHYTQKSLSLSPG
# light: DIQMTQSPSFLSASVGDRVTITCKASQDVSTAVAWYQQKPGKAPKLLIYSASYRYTGVPSRFSGSGSGTDFTLTISSLQPEDFATYYCQQHYSTPWTFGGGTKVEIKRTVAAPSVFIFPPSDEQLKSGTASVVCLLNNFYPREAKVQWKVDNALQSGNSQESVTEQDSKDSTYSLSSTLTLSKADYEKHKVYACEVTHQGLSSPVTKSFNRGEC
# notes: also called Y12XX-hz28-P238K; Y12XX-hz28 (Vh-hz14)
# Key:
# cynomolgus CD40 [1] = target: T7, cynomolgus CD40 (cynomolgus monkey, UniProt G7PG38 21-193); experiment: direct binding of AF488-labeled antibody to CD20-positive B cells in cynomolgus monkey whole blood; n=2 donors
# T7 construct: also called monomeric cynomolgus CD40; monkey CD40 receptors
# human CD40 [2] = target: T8, human CD40 (human, UniProt P25942 21-193); experiment: direct binding of AF488-labeled antibody to CD20-positive B cells in human whole blood; n=4 donors (same result in mass units)
# T8 construct: The SPR analyte is called 'monomeric human CD40'; also called monomeric human CD40
# T8 sequence (P25942 21-193 limits assumed): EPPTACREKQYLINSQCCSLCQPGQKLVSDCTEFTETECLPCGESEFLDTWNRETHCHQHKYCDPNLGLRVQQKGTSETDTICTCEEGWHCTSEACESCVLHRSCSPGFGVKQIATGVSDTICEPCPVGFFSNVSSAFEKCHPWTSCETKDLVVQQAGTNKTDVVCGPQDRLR
# hCD64 [3] = target: T9, hCD64 (human, UniProt P12314 16-288, limits assumed); experiment: FcγR binding, SPR (method per paragraph 74)
# T9 construct: also called human CD64
# T9 sequence (P12314 16-288 limits assumed): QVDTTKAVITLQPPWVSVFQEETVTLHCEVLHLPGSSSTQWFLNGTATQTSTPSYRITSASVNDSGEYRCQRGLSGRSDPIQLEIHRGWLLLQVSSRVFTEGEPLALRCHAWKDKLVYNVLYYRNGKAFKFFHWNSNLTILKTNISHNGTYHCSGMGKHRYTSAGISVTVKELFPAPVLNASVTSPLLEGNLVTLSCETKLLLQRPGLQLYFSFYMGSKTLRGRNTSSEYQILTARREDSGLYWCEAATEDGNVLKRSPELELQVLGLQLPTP
# human CD40 [4] = target: T8, human CD40; experiment: cell-based or functional assay; parameters: IC50, suppression of CHO CD40L-induced IL-6 production by monocyte-derived DCs; n=4 donors (mass units as printed) / IC50, suppression of CHO CD40L-induced TNFα production by monocyte-derived DCs; n=4 donors (mass units as printed): unit not given beside the values
# human CD40 [5] = target: T8, human CD40; experiment: direct binding of AF488-labeled antibody to CD20-positive B cells in human whole blood; n=4 donors
# hCD32a-H131 = target: T1, hCD32a-H131; experiment: FcγR binding, SPR (method per paragraph 74)
# hCD32b = target: T2, hCD32b; experiment: FcγR binding, SPR (method per paragraph 74)
# cyCD16 = target: T10, cyCD16 (cynomolgus monkey, UniProt Q8SPW2 17-208, limits assumed); experiment: FcγR binding, SPR (method per paragraph 74)
# T10 construct: also called cynomolgus CD16
# T10 sequence (Q8SPW2 17-208 limits assumed): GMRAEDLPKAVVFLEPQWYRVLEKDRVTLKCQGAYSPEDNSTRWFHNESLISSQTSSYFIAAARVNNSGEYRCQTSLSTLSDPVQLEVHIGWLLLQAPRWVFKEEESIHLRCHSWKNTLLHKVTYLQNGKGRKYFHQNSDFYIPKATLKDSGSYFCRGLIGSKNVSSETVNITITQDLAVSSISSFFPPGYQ
# cyCD32a = target: T3, cyCD32a; experiment: FcγR binding, SPR (method per paragraph 74)
# hCD16a-V158 = target: T11, hCD16a-V158 (human, UniProt P08637 17-208, limits assumed); experiment: FcγR binding, SPR (method per paragraph 74)
# T11 construct: Position 158 is the customary allotype numbering; also called hCD16a/FcγRIIIa, V158 variant
# T11 sequence (P08637 17-208 F176V limits assumed): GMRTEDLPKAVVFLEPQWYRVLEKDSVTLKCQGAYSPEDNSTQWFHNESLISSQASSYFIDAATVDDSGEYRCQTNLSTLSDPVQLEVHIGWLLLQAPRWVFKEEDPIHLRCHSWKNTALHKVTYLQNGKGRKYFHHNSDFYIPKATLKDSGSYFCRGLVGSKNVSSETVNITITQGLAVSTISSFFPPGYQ
# cyCD32b = target: T4, cyCD32b; experiment: FcγR binding, SPR (method per paragraph 74)
# hCD32a-R131 = target: T5, hCD32a-R131; experiment: FcγR binding, SPR (method per paragraph 74)
# hCD64 [6] = target: T9, hCD64; experiment: FcγR binding, SPR (method per paragraph 74); remark: listed apart in the source
# hCD16a-F158 = target: T12, hCD16a-F158 (human, UniProt P08637 17-208, limits assumed); experiment: FcγR binding, SPR (method per paragraph 74)
# T12 construct: Position 158 is the customary allotype numbering; also called hCD16a/FcγRIIIa, F158 variant
# T12 sequence (P08637 17-208 limits assumed): as the sequence (P08637 17-208 F176V limits assumed) above, with V160F counted along it
# murine CD40 = target: T6, murine CD40; experiment: single-cycle kinetic SPR, CD40 on the surface
# cynomolgus CD40 [7] = target: T7, cynomolgus CD40; experiment: SPR, antibody captured on protein A chip, monomeric CD40 as analyte
# human CD40 [8] = target: T8, human CD40; experiment: as above
# cynomolgus CD40 [9] = target: T7, cynomolgus CD40; experiment: direct binding of AF488-labeled antibody to CD20-positive B cells in cynomolgus monkey whole blood; n=2 donors (same result in mass units)
# cynomolgus CD40 [10] = target: T7, cynomolgus CD40; experiment: binding to CD20-positive B cells in cynomolgus monkey whole blood, detected with secondary anti-human IgG1-PE; n=4 donors
# cynomolgus CD40 [11] = target: T7, cynomolgus CD40; experiment: cell-based or functional assay
# human CD40 [12] = target: T8, human CD40; experiment: cell-based or functional assay
# cynomolgus CD40 [13] = target: T7, cynomolgus CD40; experiment: binding to CD20-positive B cells in cynomolgus monkey whole blood, detected with secondary anti-human IgG1-PE; n=4 donors (same result in mass units)
binder,measurement,setting,value
B1,EC50,cynomolgus CD40 [1],1 nM
same,EC50,human CD40 [2],0.13 mg/L
same,fold weaker binding than wild-type human IgG1 control,hCD64 [3],100 fold
same,"IC50, suppression of CHO CD40L-induced IL-6 production by monocyte-derived DCs; n=4 donors",human CD40 [4],0.08 nM
same,"IC50, suppression of CHO CD40L-induced IL-6 production by monocyte-derived DCs; n=4 donors (mass units as printed)",human CD40 [4],11.3
same,"IC50, suppression of CHO CD40L-induced TNFα production by monocyte-derived DCs; n=4 donors",human CD40 [4],0.1 nM
same,"IC50, suppression of CHO CD40L-induced TNFα production by monocyte-derived DCs; n=4 donors (mass units as printed)",human CD40 [4],13.3
same,EC50,human CD40 [5],0.9 nM
same,binding result,hCD32a-H131,no binding
same,binding result,hCD32b,no binding
same,binding result,cyCD16,no binding
same,binding result,cyCD32a,no binding
same,binding result,hCD16a-V158,no binding
same,binding result,cyCD32b,no binding
same,binding result,hCD32a-R131,no binding
same,Kd,hCD64 [6],17 nM
same,binding result,hCD16a-F158,no binding
same,binding result,murine CD40,no binding
same,Kd,cynomolgus CD40 [7],6.7 nM
same,koff,cynomolgus CD40 [7],0.0016 s⁻¹
same,kon,cynomolgus CD40 [7],240000 M⁻¹ s⁻¹
same,Kd,human CD40 [8],5.3 nM
same,koff,human CD40 [8],0.0012 s⁻¹
same,kon,human CD40 [8],230000 M⁻¹ s⁻¹
same,EC50,cynomolgus CD40 [9],0.149 mg/L
same,EC50,cynomolgus CD40 [10],0.7 nM
same,"IC50, inhibition of CD86 upregulation on cynomolgus B cells in whole blood stimulated by soluble CD40L trimer; n=8 donors",cynomolgus CD40 [11],0.25 nM
same,"IC50, inhibition of CD86 upregulation on cynomolgus B cells in whole blood stimulated by soluble CD40L trimer; n=8 donors (mass units)",cynomolgus CD40 [11],0.0364 mg/L
same,"IC50, inhibition of cynomolgus splenic B-cell proliferation driven by CD40L-expressing CHO cells; n=6 donors",cynomolgus CD40 [11],4.5 nM
same,"IC50, inhibition of cynomolgus splenic B-cell proliferation driven by CD40L-expressing CHO cells; n=6 donors (mass units)",cynomolgus CD40 [11],0.65 mg/L
same,"IC50, inhibition of cynomolgus splenic B-cell proliferation driven by CD40L-trimer; n=6 donors",cynomolgus CD40 [11],0.19 nM
same,"IC50, inhibition of cynomolgus splenic B-cell proliferation driven by CD40L-trimer; n=6 donors (mass units)",cynomolgus CD40 [11],0.0278 mg/L
same,"IC50, inhibition of CD54 upregulation on human B cells in whole blood stimulated by soluble CD40L trimer; n=10 donors",human CD40 [12],0.24 nM
same,"IC50, inhibition of CD54 upregulation on human B cells in whole blood stimulated by soluble CD40L trimer; n=10 donors (mass units)",human CD40 [12],0.0346 mg/L
same,"IC50, inhibition of CD86 upregulation on human B cells in whole blood stimulated by soluble CD40L trimer; n=10 donors",human CD40 [12],0.24 nM
same,"IC50, inhibition of CD86 upregulation on human B cells in whole blood stimulated by soluble CD40L trimer; n=10 donors (mass units)",human CD40 [12],0.0342 mg/L
same,"IC50, inhibition of human tonsillar B-cell proliferation stimulated by soluble CD40L trimer; n=10 donors",human CD40 [12],0.04 nM
same,"IC50, inhibition of human tonsillar B-cell proliferation stimulated by soluble CD40L trimer; n=10 donors (mass units)",human CD40 [12],0.0056 mg/L
same,"IC50, inhibition of tonsillar B-cell proliferation stimulated by CD40L-expressing CHO cells; n=8 donors",human CD40 [12],0.28 nM
same,"IC50, inhibition of tonsillar B-cell proliferation stimulated by CD40L-expressing CHO cells; n=8 donors (mass units)",human CD40 [12],0.0399 mg/L
same,EC50,cynomolgus CD40 [13],0.106 mg/L
